Test system: IL-18
Experiment: IL-18 levels in small intestine and serum after oral rhLF or bLF (cytokine ELISA)
Format: in vivo, mice
Protocol: Recombinant human lactoferrin and bovine lactoferrin were orally administered to mice, and the production of IL-18 in the small intestine was measured.
Mice were treated for three days daily with 65 mg/kg/day of rhLF, 300 mg/kg/day of rhLF or 300 mg/kg/day of bLF. For a control, mice were only administered the pharmaceutical carrier. Twenty-four hours following administration of the LF or control for 3 days, animals were weighed and blood and serum were collected. Serum was used for cytokine ELISA assays.
Also, at these time points, animals were sacrificed and the small intestinal tissue was removed for further analysis. Small intestinal epithelium was homogenized using a lysis buffer consisting of PBS, 1% Nonidet P-40, 0.5% sodium deoxycholate, and 0.1% sodium dodecyl sulphate containing 10 μg/ml PhenylMetheylsulfonyl fluoride. Homogenate was centrifuged at 15,000 rpm for 10 minutes and the supernatant stored at −80 C. till it was tested for IL-18 levels.

[1] = oral 300 mg/kg/day for three days, 24 h after last dose
[2] = oral, rhLF at both doses, bLF 300 mg/kg/day

B1: bovine lactoferrin (protein, UniProt P24627 20-708, looked up)
Lactotransferrin: APRKNVRWCTISQPEWFKCRRWQWRMKKLGAPSITCVRRAFALECIRAIAEKKADAVTLDGGMVFEAGRDPYKLRPVAAEIYGTKESPQTHYYAVAVVKKGSNFQLDQLQGRKSCHTGLGRSAGWIIPMGILRPYLSWTESLEPLQGAVAKFFSASCVPCIDRQAYPNLCQLCKGEGENQCACSSREPYFGYSGAFKCLQDGAGDVAFVKETTVFENLPEKADRDQYELLCLNNSRAPVDAFKECHLAQVPSHAVVARSVDGKEDLIWKLLSKAQEKFGKNKSRSFQLFGSPPGQRDLLFKDSALGFLRIPSKVDSALYLGSRYLTTLKNLRETAEEVKARYTRVVWCAVGPEEQKKCQQWSQQSGQNVTCATASTTDDCIVLVLKGEADALNLDGGYIYTAGKCGLVPVLAENRKSSKHSSLDCVLRPTEGYLAVAVVKKANEGLTWNSLKDKKSCHTAVDRTAGWNIPMGLIVNQTGSCAFDEFFSQSCAPGADPKSRLCALCAGDDQGLDKCVPNSKEKYYGYTGAFRCLAEDVGDVAFVKNDTVWENTNGESTADWAKNLNREDFRLLCLDGTRKPVTEAQSCHLAVAPNHAVVSRSDRAAHVKQVLLHQQALFGKNGKNCPDKFCLFKSETKNLLFNDNTECLAKLGGRPTYEEYLGTEYVTAIANLKKCSTSPLLEACAFLTR
IL-18 Intestinal Extract % Increase Over Control (oral 300 mg/kg): 373%
IL-18 Serum % Increase Over Control (oral 300 mg/kg): −5%
IL-18 Intestinal Extract [1]: 4,515 pg
IL-18 Serum [1]: 134 pg
effect on amount of IL-18 in the intestinal extract [2]: lesser increase
effect on amount of IL-18 in the serum [2]: did not increase

— patent publication US7901879B2, “Lactoferrin in the treatment of malignant neoplasms and other hyperproliferative diseases” (Agennix Incorporated, priority 2002, dated 2011)
